T1: hiR2-FL-T586A-T7 (human, UniProt Q6PJF5 1-856)
T1 sequence: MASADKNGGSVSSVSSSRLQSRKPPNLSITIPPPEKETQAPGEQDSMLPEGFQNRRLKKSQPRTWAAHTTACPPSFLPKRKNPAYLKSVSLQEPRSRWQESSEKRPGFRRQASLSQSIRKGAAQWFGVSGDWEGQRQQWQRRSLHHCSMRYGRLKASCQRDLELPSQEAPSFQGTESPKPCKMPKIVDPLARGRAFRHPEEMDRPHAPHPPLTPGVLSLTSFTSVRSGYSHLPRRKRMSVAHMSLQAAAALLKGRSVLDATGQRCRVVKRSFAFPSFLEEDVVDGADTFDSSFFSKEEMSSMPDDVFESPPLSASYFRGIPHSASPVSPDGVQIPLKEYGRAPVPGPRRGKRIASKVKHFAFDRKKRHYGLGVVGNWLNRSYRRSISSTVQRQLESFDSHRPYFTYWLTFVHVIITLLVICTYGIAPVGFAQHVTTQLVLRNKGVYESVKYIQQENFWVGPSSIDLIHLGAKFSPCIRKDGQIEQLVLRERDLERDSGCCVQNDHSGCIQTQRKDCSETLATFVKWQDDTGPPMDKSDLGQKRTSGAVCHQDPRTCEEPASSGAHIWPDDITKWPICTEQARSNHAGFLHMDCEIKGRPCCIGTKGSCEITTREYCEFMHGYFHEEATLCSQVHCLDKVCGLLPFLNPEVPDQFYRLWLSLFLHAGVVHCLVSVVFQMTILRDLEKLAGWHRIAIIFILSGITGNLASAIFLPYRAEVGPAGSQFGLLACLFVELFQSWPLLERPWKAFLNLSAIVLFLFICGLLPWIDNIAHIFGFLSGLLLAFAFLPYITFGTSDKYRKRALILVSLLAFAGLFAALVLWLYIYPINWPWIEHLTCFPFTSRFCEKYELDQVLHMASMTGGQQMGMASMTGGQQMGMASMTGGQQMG

T2: hiR2-FL-T519A-T7 (human, UniProt Q6PJF5 1-856)
T2 sequence: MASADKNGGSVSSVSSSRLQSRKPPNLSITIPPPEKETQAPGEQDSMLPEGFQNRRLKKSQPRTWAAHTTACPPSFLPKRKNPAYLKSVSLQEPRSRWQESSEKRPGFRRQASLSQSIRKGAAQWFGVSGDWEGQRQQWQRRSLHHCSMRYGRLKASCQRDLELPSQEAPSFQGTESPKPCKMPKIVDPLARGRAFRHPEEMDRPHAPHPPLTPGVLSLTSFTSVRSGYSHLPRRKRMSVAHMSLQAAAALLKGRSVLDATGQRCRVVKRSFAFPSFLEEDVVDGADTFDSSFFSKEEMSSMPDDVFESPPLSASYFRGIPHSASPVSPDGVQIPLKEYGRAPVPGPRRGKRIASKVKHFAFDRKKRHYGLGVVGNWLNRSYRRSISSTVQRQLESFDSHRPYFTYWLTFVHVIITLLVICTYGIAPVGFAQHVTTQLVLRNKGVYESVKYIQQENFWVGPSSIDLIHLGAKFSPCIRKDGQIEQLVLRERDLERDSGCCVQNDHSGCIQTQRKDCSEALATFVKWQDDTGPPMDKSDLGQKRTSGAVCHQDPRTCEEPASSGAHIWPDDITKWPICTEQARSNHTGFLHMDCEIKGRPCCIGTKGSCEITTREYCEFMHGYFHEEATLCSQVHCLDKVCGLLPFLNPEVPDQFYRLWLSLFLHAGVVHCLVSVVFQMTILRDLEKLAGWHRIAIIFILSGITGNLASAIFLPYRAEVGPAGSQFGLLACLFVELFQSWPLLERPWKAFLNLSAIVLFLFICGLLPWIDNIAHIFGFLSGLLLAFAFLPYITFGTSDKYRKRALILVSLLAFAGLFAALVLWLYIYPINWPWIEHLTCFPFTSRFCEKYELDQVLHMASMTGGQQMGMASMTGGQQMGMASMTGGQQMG


Key:
hiR2-FL-T586A-T7 = target: T1, hiR2-FL-T586A-T7; assay: FACS on MEF-DKO cells expressing the variant, 3 µg/ml antibody
Summary of the method: (§1)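 Two incubations on ice, each 1 hour: test antibody (3 μg/ml) or FACS buffer only, then PE anti-mouse F(ab′)2 at 1:100 in the dark. Centrifugation and washes used 4° C; staining quantified on a flow cytometer.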

hiR2-FL-T519A-T7 = target: T2, hiR2-FL-T519A-T7; assay: as above
Summary of the method: as §1

Binder | loss of binding vs wild type (hiR2-FL-T586A-T7) [%] | loss of binding vs wild type (hiR2-FL-T519A-T7) [%]
antibody 3 (antibody, V domains shown, mouse IgG, kappa light chain; also called clone #3; purified antibody 3) VH: QVTLKESGPGILQPSQTLSLTCSFSGFSLTTFAMGIGWVRQPSGKGLEWLAHIWWDGEKYNNPVLKSRLTISKDTSKNQVFLRIANVDTPDTATYYCARISSIYYIIDNWGQGTSVTVSS VL: DIVLTQSPATLSVTPGHSVSLSCRASQSISNNLHWYQKKSHESPRLLIKYVSQSISGIPSRFSGSGSGTDFTLSINSVETEDFGMYFCQQSYNWPLTFGAGTKLELK | ≥ 30 | –
antibody 5 (antibody, V domains shown, mouse IgG, kappa light chain; also called clone #5; purified antibody 5) VH: QVTLKESGPGILQPSQTLSLTCSFSGFSLSTFGMGVGWIRQPSGKGLEWLAHIWWDDEKYYNSALKSRLTISKATSKNQAFLKIANVDTADTATYYCARISNYGSNYWYFNVWGTGTTVTVSS VL: QVVLTQSPALMSASPGEKVTMTCSAGSSVSCMYWYQQKPGSSPRVLIYDTSNLASGVPARFTGSGSGTSYSLTISRMEAEDAASYYCQQWNSYPLTFGAGTKLELK | ≥ 30 | –
antibody 48 (antibody, V domains shown, mouse IgG, kappa light chain; also called clone #48; purified antibody 48) VH: QVQLQQSGTELVRPGTSVKVSCKASGYAFTNYLIEWVKQRPGQGLEWIGVINPGSGFTKYNEKFKGKATLTADKSSSTVYMHLSSLTSEDSAVYFCARGLYRAMDYWGQGTSVTVSS VL: DIQMTQSPASQSASLGESVTITCLASQTIATWLAWYQQKPGKSPQLLIYGATTLADGVPSRFSGGGSGTKFSFKISSLQAEDFVSYYCQQLYSTPYTFGGGTKLEIK | – | ≥ 60
antibody 50 (antibody, V domains shown, mouse IgG, kappa light chain; also called clone #50; purified antibody 50) VH: QVQLQQSGAELVRPGASVKVSCKASGYAFSNYLIEWVKQRPGQGLEWIGVINPGSGFTKYNEKFKGKATLTADKSSSTAYMQLSSLTSEDSAVYFCARGLYRAMDYWGQGTSVTVSS VL: DIQMTQSPASQSASLGESVTITCLASQTIGTWLAWYQQKPGKSPQLLIYAAASLADGVPSRFSGGGSGTKFSFKISSLQAEDFVNYYCQQIYSTPYTFGGGTKLEIK | – | ≥ 60

From patent US20240287172A1 (SCIRHOM, published 2024)
